According to PMC9547787:

Key:
[1] = target: MECP2; experiment: BioID (streptavidin pulldown, LC-MS/MS); conditions: Flp-In T-Rex HEK293 cells; parent: est. 17; read off a plot
[2] = target: BAZ2A; experiment: BioID (streptavidin pulldown, LC-MS/MS); conditions: Flp-In T-Rex HEK293 cells; parent: est. 220; read off a plot
[3] = target: MBD4; experiment: BioID (streptavidin pulldown, LC-MS/MS); conditions: Flp-In T-Rex HEK293 cells; parent: est. 14; read off a plot
[4] = target: MBD3; experiment: BioID (streptavidin pulldown, LC-MS/MS); conditions: Flp-In T-Rex HEK293 cells; parent: est. 41; read off a plot
[5] = target: SUV39H2 (UniProt Q9H5I1); experiment: proximity ligation assay (PLA); conditions: MO3.13 cells; n: EV = 14; H3.1WT = 36; H3.1K27M = 67; H3.3WT = 60; H3.3K27M = 62; parent: est. 1.2; read off a plot
Chain of UniProt Q9H5I1 (Q9H5I1 whole entry): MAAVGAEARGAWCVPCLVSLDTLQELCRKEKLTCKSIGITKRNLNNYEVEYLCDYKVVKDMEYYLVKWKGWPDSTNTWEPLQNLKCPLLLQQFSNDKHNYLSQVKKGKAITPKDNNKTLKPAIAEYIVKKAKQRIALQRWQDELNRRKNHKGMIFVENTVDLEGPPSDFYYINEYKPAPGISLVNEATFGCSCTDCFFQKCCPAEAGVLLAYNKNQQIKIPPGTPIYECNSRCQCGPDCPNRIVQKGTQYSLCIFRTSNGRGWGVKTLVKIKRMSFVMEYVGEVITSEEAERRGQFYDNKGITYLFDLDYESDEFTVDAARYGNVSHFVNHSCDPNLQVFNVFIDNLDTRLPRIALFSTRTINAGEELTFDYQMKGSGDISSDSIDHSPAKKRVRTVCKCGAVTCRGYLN

response (peptide count) [1] | response (peptide count) [2] | response (peptide count) [3] | response (peptide count) [4] | response (relative foci (relative to H3.3WT)) [5] | Substance
4.1 | 83 | 13 | 23 |  | H3.3WT (FLAG-BirA* fusion, BioID bait) (from UniProt P84243) G34R
 |  |  |  | 0.54 | H3.1WT-FLAG/HA (from UniProt P68431) K27M
